Tests used:
Experiment in all cases: cell-based or functional assay
[1] = molecular target: HIV-1 Env of isolate 92UG046 (pseudovirus) (HIV-1)
[2] = molecular target: HIV-1 Env of isolate MGRM-A-001 (pseudovirus) (HIV-1)
[3] = molecular target: HIV-1 Env of isolate MGRM-A-012 (subtype A) (HIV-1)
[4] = molecular target: HIV-1 Env of isolate MGRM-AE-006 (subtype AE) (HIV-1)
[5] = molecular target: HIV-1 Env of isolate MGRM-C-001 (HIV-1)
[6] = molecular target: HIV-1 Env of isolate MGRM-Chronic-B-001 (HIV-1)
[7] = molecular target: HIV-1 Env of isolate MGRM-D-004 (pseudovirus) (HIV-1)
[8] = molecular target: HIV-1 Env of isolate MGRM-D-011 (pseudovirus) (HIV-1)
[9] = molecular target: HIV-1 Env of isolate MGRM-F1-008 (HIV-1)
[10] = molecular target: HIV-1 Env of isolate MGRM-F1-010 (HIV-1)
[11] = molecular target: HIV-1 Env of isolate MGRM-F1-017 (HIV-1)
[12] = molecular target: HIV-1 JR-CSF Env N301A (HIV-1 (isolate JR-CSF, clade B)) (UniProt P20871)
[13] = molecular target: HIV-1 JR-CSF Env N396A (HIV-1 (isolate JR-CSF)) (UniProt P20871)
[14] = molecular target: HIV-1 92UG005 envelope protein (Env) on pseudovirus (HIV-1)
[15] = molecular target: HIV-1 MGRM-AG-005 envelope protein (Env) on pseudovirus (HIV-1)
[16] = molecular target: aMLV envelope protein on pseudovirus (negative control)
[17] = molecular target: HIV-1 Env of pseudovirus MGRM-D-026 (HIV-1)
[18] = molecular target: HIV-1 Env of pseudovirus MGRM-F1-006 (HIV-1)
[19] = molecular target: HIV-1 Env of pseudovirus MGRM-F1-018 (HIV-1)
[20] = molecular target: HIV-1 envelope glycoprotein (Env) of isolate MG RM-AG-003 (HIV-1)
[21] = molecular target: HIV-1 Env of isolate MGRM-AE-003 (pseudovirus) (HIV-1)
[22] = molecular target: HIV-1 Env of isolate MGRM-G-009 (subtype G) (HIV-1)
[23] = molecular target: HIV-1 Env of isolate 92UG114 (HIV-1)
[24] = molecular target: HIV-1 Env of isolate MGRM-C-022 (subtype C), on pseudovirus (HIV-1)
[25] = molecular target: HIV-1 Env of isolate MGRM-D-001 (HIV-1)
[26] = molecular target: HIV-1 Env of isolate MGRM-D-004 (HIV-1)
[27] = molecular target: HIV-1 Env of pseudovirus isolate MGRM-Chronic-B-004 (clade B) (HIV-1)

Sequence of PGT-142 (4995_E20) (antibody) (VH): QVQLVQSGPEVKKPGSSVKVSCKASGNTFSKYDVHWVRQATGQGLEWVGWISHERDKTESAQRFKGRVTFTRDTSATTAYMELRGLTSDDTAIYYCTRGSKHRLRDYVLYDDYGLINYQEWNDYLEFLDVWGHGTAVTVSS
Sequence of PGT-142 (4995_E20) (antibody) (VL): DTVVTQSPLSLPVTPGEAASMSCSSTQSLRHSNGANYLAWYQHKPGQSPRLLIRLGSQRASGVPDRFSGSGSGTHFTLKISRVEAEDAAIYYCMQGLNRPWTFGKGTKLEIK
Sequence of PGT-144 (4970_K22) (antibody) (VH): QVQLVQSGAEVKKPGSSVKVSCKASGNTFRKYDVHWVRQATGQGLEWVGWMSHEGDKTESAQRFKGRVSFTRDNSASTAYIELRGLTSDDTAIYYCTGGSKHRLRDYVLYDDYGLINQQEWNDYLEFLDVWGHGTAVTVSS
Sequence of PGT-144 (4970_K22) (antibody) (VL): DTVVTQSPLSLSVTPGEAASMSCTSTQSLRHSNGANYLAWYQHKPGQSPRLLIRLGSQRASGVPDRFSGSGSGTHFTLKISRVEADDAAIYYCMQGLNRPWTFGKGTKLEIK
Sequence of PGT-145 (4995_P16) (antibody) (VH): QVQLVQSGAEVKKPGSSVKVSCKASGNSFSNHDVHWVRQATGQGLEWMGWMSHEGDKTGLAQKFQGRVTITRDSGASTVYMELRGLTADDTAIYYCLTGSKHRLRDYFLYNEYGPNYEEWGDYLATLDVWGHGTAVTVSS
Sequence of PGT-145 (4995_P16) (antibody) (VL): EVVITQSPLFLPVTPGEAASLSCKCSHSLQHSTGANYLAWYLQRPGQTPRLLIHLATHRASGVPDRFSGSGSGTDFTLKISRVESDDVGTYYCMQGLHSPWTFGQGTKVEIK
Sequence of PGT-141 (4964_G22; 4993_K13) (antibody) (VH): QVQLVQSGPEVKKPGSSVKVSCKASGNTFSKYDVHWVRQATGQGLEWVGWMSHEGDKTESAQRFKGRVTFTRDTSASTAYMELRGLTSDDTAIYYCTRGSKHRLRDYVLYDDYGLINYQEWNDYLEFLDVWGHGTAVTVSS
Sequence of PGT-143 (4980_N08) (antibody) (VH): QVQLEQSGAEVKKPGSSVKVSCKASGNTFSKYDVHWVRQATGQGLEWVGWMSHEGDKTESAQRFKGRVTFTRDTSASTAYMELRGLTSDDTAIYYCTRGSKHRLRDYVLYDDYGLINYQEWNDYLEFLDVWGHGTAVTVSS
Sequence of PGT-143 (4980_N08) (antibody) (VL): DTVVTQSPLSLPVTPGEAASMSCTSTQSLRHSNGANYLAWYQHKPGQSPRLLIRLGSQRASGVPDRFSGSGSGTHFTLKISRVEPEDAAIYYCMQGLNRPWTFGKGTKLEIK

Substance	IC50 (µg/mL), pseudovirus neutralization [1] [µg/mL]	IC50 (µg/mL), pseudovirus neutralization [2] [µg/mL]	IC50, pseudovirus neutralization [3] [µg/mL]	IC50, pseudovirus neutralization [4] [µg/mL]	IC50 (µg/mL), pseudovirus neutralization [5] [µg/mL]	IC50 (µg/mL), pseudovirus neutralization [6] [µg/mL]	IC50 (µg/mL), pseudovirus neutralization [7] [µg/mL]	IC50 (µg/mL), pseudovirus neutralization [8] [µg/mL]	IC50 (µg/mL), pseudovirus neutralization [9] [µg/mL]	IC50 (µg/mL), pseudovirus neutralization [10] [µg/mL]	IC50 (µg/mL), pseudovirus neutralization [11] [µg/mL]	IC50, pseudovirus neutralization [17] [µg/mL]	IC50, pseudovirus neutralization [18] [µg/mL]	IC50, pseudovirus neutralization [19] [µg/mL]	IC50 [20] [µg/mL]	further results
5136_H01 (PGT-131) (antibody)	> 50	> 50	> 50	0.026	> 50	> 50	2.01	0.756	2.74	> 50	> 50	–	–	–	–	Fold IC50 increase relative to wild-type [12]: > 170 fold; Fold IC50 increase relative to wild-type (pseudovirus neutralization) [13]: 0.9 fold
5329_C19 (PGT-136) (antibody)	> 50	> 50	> 50	> 50	7.52	> 50	> 50	> 50	> 50	> 50	> 50	–	–	–	–	IC50 (ug/mL), pseudovirus neutralization [14]: > 10 µg/mL; IC50 (ug/mL), pseudovirus neutralization [15]: > 10 µg/mL; IC50 (ug/mL), pseudovirus neutralization [16]: > 10 µg/mL
5345_I01 (PGT-137) (antibody)	> 50	> 50	> 50	> 50	21.5	> 50	> 50	6.3	> 50	> 50	> 50	–	–	–	–	–
PGT-141 (4964_G22; 4993_K13) (antibody)	–	–	–	–	–	–	–	–	–	–	–	32.5	8.99	0.785	> 50	–
PGT-142 (4995_E20) (antibody)	–	–	–	–	–	–	–	–	–	–	–	12.5	12.9	0.404	> 50	–
PGT-143 (4980_N08) (antibody)	–	–	–	–	–	–	–	–	–	–	–	44.6	12.3	0.701	> 50	–
PGT-144 (4970_K22) (antibody)	–	–	–	–	–	–	–	–	–	–	–	> 50	20.6	> 50	> 50	–
PGT-145 (4995_P16) (antibody)	–	–	–	–	–	–	–	–	–	–	–	0.41	13.6	1.02	> 50	–
PGV04 (antibody)	–	–	–	–	–	–	–	–	–	–	2.38	–	–	–	–	IC50 (µg/mL), pseudovirus neutralization [21]: 6.4 µg/mL; IC50 (µg/mL), pseudovirus neutralization [22]: 0.043 µg/mL
VRC01 (antibody)	–	–	–	–	–	–	–	–	–	–	–	0.435	2.86	0.032	0.043	IC50 (µg/mL), pseudovirus neutralization [23]: 0.33 µg/mL; IC50 (µg/mL), single-round pseudovirus neutralization [21]: 0.685 µg/mL; IC50, single-round pseudovirus neutralization [24]: 13 µg/mL; IC50 (µg/mL), pseudovirus neutralization [25]: > 50 µg/mL; IC50 (µg/mL), pseudovirus neutralization [26]: 1.25 µg/mL; IC50 (µg/mL), pseudovirus neutralization [22]: 0.073 µg/mL; IC50, pseudovirus neutralization [27]: 0.055 µg/mL
